Measurements taken from US20200010853, “METHOD FOR INSERTING DESIRED DNA FRAGMENT INTO SITE LOCATED ADJACENT TO BINDING DOMAIN OF DNA-BINDING PROTEIN” (KYUSHU UNIVERSITY, NATIONAL UNIVERSITY CORPORATION, published 2020).

Biological target: Tn5 transposase (UniProt Q46731 Q46731:1-476)
Assay: free adaptor added to Tn5 in fixed cells; integration with 5 mM MgCl2, 37 C; binding not measured separately
Conditions: chain copies: 2; partial duplex with 5' overhang
Procedure: Subsequently, TN5 transposase was added to the sample at a concentration of 85 μg/mL, and incubated at room temperature for 10 minutes. Thereby, transposase was bound to the transposase-binding sequence in the DNA fragment labeled to the nucleic acid-labeled secondary antibody.
Subsequently, a free DNA fragment (hereinafter, referred to as “oligo3-4”) having a transposase-binding sequence was added to the sample, reacted at room temperature for 1 hour, and then washed with PBS. The oligo3-4 was obtained by annealing a DNA fragment having a base sequence described in the Seq ID No. 3 and a DNA fragment having a base sequence described in the Seq ID No. 4. A double stranded DNA domain of the oligo3-4 was a binding sequence of TN5 transposase.

Sequence of Tn5 transposase (Q46731 whole entry, one chain of several): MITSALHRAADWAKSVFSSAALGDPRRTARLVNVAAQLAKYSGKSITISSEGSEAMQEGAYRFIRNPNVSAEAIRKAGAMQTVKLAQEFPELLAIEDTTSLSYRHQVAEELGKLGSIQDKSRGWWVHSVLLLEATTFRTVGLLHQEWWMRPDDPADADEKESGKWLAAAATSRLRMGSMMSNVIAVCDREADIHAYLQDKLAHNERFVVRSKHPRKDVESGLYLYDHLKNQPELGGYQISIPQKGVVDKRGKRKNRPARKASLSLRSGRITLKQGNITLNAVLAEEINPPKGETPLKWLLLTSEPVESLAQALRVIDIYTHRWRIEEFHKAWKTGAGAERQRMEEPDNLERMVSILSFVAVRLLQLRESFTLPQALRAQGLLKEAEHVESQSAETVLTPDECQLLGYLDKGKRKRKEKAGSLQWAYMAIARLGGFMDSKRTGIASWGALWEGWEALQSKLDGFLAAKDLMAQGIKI

B1: oligo3-4 free Tn5 adaptor (mixed)
DNA 1: GTCTCGTGGGCTCGGAGATGTGTATAAGAGACAG
DNA 2: CTGTCTCTTATACACATCT
  binding result: binds
